# In the nanobody polyreactivity screen of Harvey et al. (2022):
# Assay: yeast display, Sf9 membrane polyspecificity reagent, FACS + sequencing; frameworks hold sequencing errors
# Method in brief: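 Genes from sorted yeast were amplified by colony PCR, read by MiSeq 2 × 250 sequencing and filtered on CDR length. These cells carried a synthetic nanobody library in Saccharomyces cerevisiae BJ5465 and were sorted by FACS into low and high (top ~1%) gates on anti-HA and streptavidin fluorescence. Polyreactivity is labelled according to the gate of origin.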
row,Sequence,polyreactivity (PSR sort gate)
1,QVQLVESGGGLVQAGGSLRLSCAASGSIFFLYAMGWYRQAPGKEWELVAAISGGGGSTYYADSVKGRFTISRDNAKNTVYFQMNCLKPEDTAVYNSAARTRVTKREYDYWGQGTQVTVSS,high polyreactivity
2,QVQLVESGGGLVQAGGSLRLSCAASGSIFFLYARGWYRQAPGKERELVAAISRSGGNTYYADSVKGRFTISRDNAKNSVYLQMNSLKPEDTAVYYCAADGVHRGGRGGYWGQGTQVTVSS,high polyreactivity
3,QVQLVESGGGLVQAGGSLRLSCAASGSIFFPNAMGWYRQAPGKERELVAAINWSGDSTYYADSVKGRFTISRDNAKNTVYLQMNSLKPEDTAVYYCNATYPWFDYDYWGQGTQVTVSS,low polyreactivity
4,QVQLVESGGGLVQAGGSLRLSCAASGSIFFPYAMGWSRQAPGKERELVAAITYGGGSTYYADSVKGRFTISRDNAKNTVYLQMNSLIPEDTAVYYCAAAVSYWRHGYQLSYDYWGQGTQVTVSS,high polyreactivity
5,QVQLVESGGGLVQAGGSLRLSCAASGSIFFPYAMGWYRQAPGKERELVAAISWRGGITYYADSVKGRFTISRDNAKNTVYLQMNSLKPEDTAVYYCAADGPYTGDGALDYWGQGTQVTVSS,high polyreactivity
6,QVQLVESGGGLVQAGGSLRLSCAASGSIFFPYAMGWYRQAPGKERELVAAISYSGTSTYYADSVKGRFTISRDNAKNTVYLQMNSLKPEDTAVYYCAAYSRYYASYDYWGQGTQVTVSS,high polyreactivity
7,QVQLVESGGGLVQAGGSLRLSCAASGSIFFQNAMGWYRQAPGKESEFVAAITWRGASTYYADSVKGRFTISRDNATNTVYLQMNSLKPEDTAVYYCAARQHYYYGWYYYWGQGTQVTVSS,high polyreactivity
8,QVQLVESGGGLVQAGGSLRLSCAASGSIFFRNAMGWYRQAPGKERELVAAITFSGGRTYYADSVKGRFTISRDTANNTVYLQMNSMKPEDTAVYYCAGRRSYTYARYDYWGQGTQVTVSS,high polyreactivity
9,QVQLVESGGGLVQAGGSLRLSCAASGSIFFRYAMGWYRQAPGKERELVAAISSSGGSTYYADSVKGRFTISRDNAKNTVYLQMNSLKPEDTAVYYCAARYYRKYYYSPFDYWGQGTQVTVSS,high polyreactivity
10,QVQLVESGGGLVQAGGSLRLSCAASGSIFFRYATMGWYRHAPGKESELVAAISRSGGSTYYADSVKGRFTISRDNGKNTVYLQMNSLKPEDTAVYYCAKVSPSLRASGYDYWGQGTQLTVSS,high polyreactivity
11,QVQLVESGGGLVQAGGSLRLSCAASGSIFFSNAMGWYRQAPGKERELVAAITSTGGSTYYADSVKGRFTISRDNAKNTVDLQMNSLKPEDTAVYYCAAASRRGYYYWGQGTQVTVSS,high polyreactivity
12,QVQLVESGGGLVQAGGSLRLSCAASGSIFFSNTMGWYRQAPGKERELVASIRETAGSTNYADSLKGRFTISRDYAKITVYLQMHSLKPEDTAVYYCAARYSPTRYHYGYWGQGTQVTVSS,low polyreactivity
13,QVQLVESGGGLVQAGGSLRLSCAASGSIFFSNTMGWYRQAPGKERELVASITGDSSTNYADSVKGRFTISRDNAKNTVYLQMNSLKPEDTAVYYCNAGRVLRYVGHYSGDLEYWGQGTQVTVSS,low polyreactivity
14,QVQLVESGGGLVQAGGSLRLSCAASGSIFFSYAMGWYRKAPGKERELVAAIDYSGGGTYYADSVKGRFTISRDNAKNTVYLQMNSLKPEDTAVYYCKSDTEVWADTFISYRALNYWGQGTQVTVSS,low polyreactivity
15,QVQLVESGGGLVQAGGSLRLSCAASGSIFFTNAMGWYRQAPGKERELVASITSSGGSTYYADSVKGRFTISRDNAKNTVYLQMNSLKPEDTAVYYCARDRWPFWYSPSGVYRYYYWGQGTQVTVSS,low polyreactivity
16,QVQLVESGGGLVQAGGSLRLSCAASGSIFFTYAMGWYRQEPGKERELVAAINSSGGSTYYADSVKGRFTISRDNAKNTVYLQMNSLKPEDTAVYYCAAYRYWSTPRYYWGQGTQVTVSS,high polyreactivity
17,QVQLVESGGGLVQAGGSLRLSCAASGSIFFTYVMGWYRQAPGKERELVAAISSDDNTNYADSVKGRFTISRDNAKNTVYLQMNSLKPEDTAVYYCNADTTLYPYYDYGYYDYDYWGQGTQVTVSS,low polyreactivity
18,QVQLVESGGGLVQAGGSLRLSCAASGSIFFVYAMGWYRQAPGKERELVAAITWSGGRTYYADSVKGRFTISRDNAKNTVYLQMNSLKPEDTAVYYCAARKYSDYFTPRYYYWGQGTQVTVSS,high polyreactivity
19,QVQLVESGGGLVQAGGSLRLSCAASGSIFFWNTMGWYRQAPGKERELVAAISSGGSTYYADSVKGRFTISRDTAKNTVYLQMNSLRPEDTAVYYCAAVYSGLYSYYYWGQGTQVTVSS,low polyreactivity
20,QVQLVESGGGLVQAGGSLRLSCAASGSIFFWYAMGWYRQAPGKVRELVAAISYSGSRTYYSDSVKGRFTISRDNAKNTVYLQMNSLKPEDTAVDYFNVSLYSGAEYDYWGQGTQVTVSS,high polyreactivity
21,QVQLVESGGGLVQAGGSLRLSCAASGSIFFYAMGWYIQAPGKERQLVAAISWRGGSTYADSVKGRFTISRDNAKKTVYLQMKSLKPEDTAVYYCAKDWVRSGAVIDYDYWGQGTQVTVSS,high polyreactivity
22,QVQLVESGGGLVQAGGSLRLSCAASGSIFFYAMGWYRQAPGKERELVADITYTGGSKYADSVKGRFTISRDYAKNTVYLQMNSLKPEDTAVYYCAKLDGGLFDYWGQGTQVTVSS,low polyreactivity

row,Sequence,polyreactivity (PSR sort gate)
1,QVQLVESGGGLVQAGGSLRLSCAASGSIFFYNAMGWYRQAPGKERELVAAISRGGNTNYADSVKGRFTISRDNANNTVYLQMNSLKPEDTAVYYCNAESLSGAHGYWGQGTQVTVSS,low polyreactivity
2,QVQLVESGGGLVQAGGSLRLSCAASGSIFFYYAMGWYRQAPGKERELVASISTDGSTYADSVKGRFTISRDNAKNTVSLQMNSLKPEDTAFYYCATRGAEAERFASYDFDYWGQGTQVTVSS,low polyreactivity
3,QVQLVESGGGLVQAGGSLRLSCAASGSIFFYYTMGWYRQAPGKEREMVAAISVGGSTYYADSVKGRFTISSDNAKNTVYLQMKSLKPEDTAVYYCNAVPAKGYVTVVRYYYWGLGTQVTVSS,low polyreactivity
4,QVQLVESGGGLVQAGGSLRLSCAASGSIFGANAMGWYRKAPGKERELVAAISTRGGRTYYADSVKGRFTISRDNAKNTVYLQMNSLKPEDTAVYYCATSGGRPYKYEYWGQGTQVTVSS,high polyreactivity
5,QVQLVESGGGLVQAGGSLRLSCAASGSIFGDNAMGWYRQAPGKERELVAAIDSDGSTNYADSVNGRFTISRDNAKNTVYLQMNSLKPEDTAVYYCAASEPYSKPYTYDYWGQGTQVTVSS,low polyreactivity
6,QVQLVESGGGLVQAGGSLRLSCAASGSIFGDNAMGWYRQAPGKERELVAAITSSGGSTYYADSVKGRFTISRDNAKNSVYLQMNSLKPEDTAVYYCNADFGYGWYLRYDYWGLGTQVTVSS,high polyreactivity
7,QVQLVESGGGLVQAGGSLRLSCAASGSIFGDYVMGWYRQAPGKERELVAAISGNGGRTYYADSVKGRFTISRDNAKNTVYLQMNSLKPEDTAVYYCAKVRSVTIGRDYWGQGTQVTVSS,high polyreactivity
8,QVQLVESGGGLVQAGGSLRLSCAASGSIFGDYVMGWYRQAPGNERELVAAINRGGSTYYADSVKGRFSISRDNAKNTVYLQMNSLTAEDTAVYFCAAGYPSWYYCYPYDSWGQGTQVTVSS,low polyreactivity
9,QVQLVESGGGLVQAGGSLRLSCAASGSIFGENAMGWYRQAPGKERELVAAITWSGASTYYADSVKGRFTISRDNAKNTVYLQMNSLKPEDTAVYYCNADRYVRYSTFDYWGQGTQVTVSS,high polyreactivity
10,QVQLVESGGGLVQAGGSLRLSCAASGSIFGFNAMGWYRQAPGKERELVAAINGGGTTYYADSVKGRFTISRDNAKNTVYLQMNSLIPEDTAVYYCAATPNGYYYLGYDYWGQGTQVTVSS,low polyreactivity
11,QVQLVESGGGLVQAGGSLRLSCAASGSIFGFNAMGWYRQAPGKERELVAAISSGSTYYADSVKGRFTISRDNAKNTVYLQKNSLKPEDTAVYYCAATTGYSWYGYWGQGPQVTVSS,low polyreactivity
12,QVQLVESGGGLVQAGGSLRLSCAASGSIFGFNAMGWYRQAPGKERELVASISSSGDSTYYADSVKGRFTISRDNAKNTVYLLMNSLKPEDTAVYYCATEGRTDYNREMEYWGQGTQVTVSS,low polyreactivity
13,QVQLVESGGGLVQAGGSLRLSCAASGSIFGFYAMGWYRQAPGKERELVAAIRYTGGSTYYADSVKGRFTISRDNAKNTVYLQMNSLKPEDTAVYYCNARTFRRYVSYSRTYVGYDYWGQGTQVTVSS,high polyreactivity
14,QVQLVESGGGLVQAGGSLRLSCAASGSIFGFYAMGWYRQAPGKERELVAAISDSGDSTYYADSVKGRFTISRDNAKNTVYLQMNSLKPEDTAVYYCATDGRSNYYWGDYWGQGTQVTVSS,low polyreactivity
15,QVQLVESGGGLVQAGGSLRLSCAASGSIFGFYAMGWYRQAPWKERELVAAINSNSGSTYYADSVKGRFTISRDNAKNTVYLQMNSLKPEDTAVYYCAARSPYVTPQGFNYCGQGTQVTVSS,high polyreactivity
16,QVQLVESGGGLVQAGGSLRLSCAASGSIFGFYMGWYRQAPGKERELVAAISGSGGNTYYADSVKGRFTISRDNAKNTVYLQMNSLKPEDTAVYYCAAVSRHRGWDRYYWGQGTQVTVSS,high polyreactivity
17,QVQLVESGGGLVQAGGSLRLSCAASGSIFGGNAMGWYRQAPGKERELVAAITTGDGSTYYADSVKGRFTISRDNAKNTVYLQMNSLKPEDTAVYYCAADIVHDRFDYWGQGTQVTVSS,low polyreactivity
18,QVQLVESGGGLVQAGGSLRLSCAASGSIFGGNAMGWYRQAPGKERELVATITSAGSTYYADSVKGRFTISRDNAKNTVYLQMNSLKPEDTAVYYCAADPTYYWRYYPTRLYVEYDYWGQGTQVTVSS,low polyreactivity
19,QVQLVESGGGLVQAGGSLRLSCAASGSIFGGNTMGWYRQAPGKERELVAAISWSGGRTYYADSVKGRFTISRDNAKNTVYLQMNSLKPEDTAVYYCAATFRGVLGWYHYEYWGQGTQVTVSS,high polyreactivity
20,QVQLVESGGGLVQAGGSLRLSCAASGSIFGGYAMGWYRQAPGKERELVAAISSGGSTYYADSVKGRFTISRDNAKNTVYLQMNSLKPEDTAVYYCATSTYADRRNSYYYTRPRFGYWGQGTQVTVSS,high polyreactivity
21,QVQLVESGGGLVQAGGSLRLSCAASGSIFGGYAMGWYRQAPGKERELVARIRVSGGRTYYADSVKGRFTISRDNAKNTVYLQMISLKPEDTAVYYCAVDRYWWLDGYDYWGQGTQVTVSS,high polyreactivity
